Results from the DeepSol protein solubility set.

Test: soluble on expression in E. coli; label from the status in PepcDB or PDB records

Row | Sequence | soluble on expression in E. coli
1 | MSLSSPTADVEKLRRIIEVARGDRRADFVVKNAQIVDLVNEEIFEGDIAVAEGFIAGIGSYSGVEECEASNLVAVPGLIDAHTHIEMSMLTVSEFARLVVPRGTTGVVADPHEIANVLGKDGVMLMLEEARSTPLRFYCMVPSCVPSSPLETSGARIGVEEIRELLEEEEVLGLAEMMNFPGVVSADREVLEKIVLAGIVDGHAPGLRGKKLNAYIAAGASSDHETTSFEEGKEKLRLGMWVMIREGSAARNLVALKGLTGNRHTMLVTDGDRSVKDIIEEGYLDHVFRRAIEEGIDEIKALQMLTLNPAEYFGINAGLIAPSRLADIVLLKNLRKFEVRDVFVGGRRPEFKRFNHPEWAKKTVKARKITPESIQLKTGRVRVIEVYDGEIVTGEAIEEVQGVDVERDILKAVVVERHIRSGRVGKAYVRGFGLKRGAIAQSIAHDAHNIVCVGVDDGSICAAVNRVIELQGGIVVADAEVRAELPLPIAGIMSDERAERVLERLSEIEEEVRKLGCRLKSPVITLSFIALPVIPKLKLTDLGLVDVEAFRVVDLQADEGHHHHHH | not soluble
2 | MSLSSSCIEEVSVPDDNWYRIANELLSRADITINGSAPSDIRVKNPDFFKRVLQEGSLGLGESYMDGWWECERLDIFFSKVLRAGLENQLPHHVKDTLRILGARLINLQSKKRAWIVGKEHYDLGNDLFSRMLDPYMQYSCAYWKDADTLEAAQQAKLKLICEKLQLQPGMRVLDIGCGWGGLSQYMATHYGVSVVGVTISAEQQKMAQTRCEGLDVSILLEDYRDLNDQFDRIVSVGMFEHVGPKNYNTYFEVVDRNLKPDGLFLLHTIGSKKTDHNVDPWINKYIFPNGCLPSVRQIAEASESHFVMEDWHNFGADYDTTLMAWHERFINAWPEIAGNYNERFKRMFSYYLNACAGAFRARDIQLWQVVFTRGVENGLRVPREGHHHHHH | soluble
3 | MSLSTFPTALAVAVSVPSSLTPQDFSWRKFKLKRNVKISRNFEFAISCSGDRAASIGFDVPFPKDYTELLQQVFILFAFSPLKIGGWGSRNRGGITREIKAKEATELALKDNRQLMEIEFPTAGLGSVPGDGEGGIEMTGSIQLIREFCDLLVIPEKATKTRIFFPEANEVKFARQSIFGGASFKLDYLTKPSFFEDFGFTEKVKMADRVKPEDELFIVAYPYFNVNEMLVVEELYQAAVLNTSRKLIIFNGELDRIRSDYPPFFYPKLAALSKTLFPKMETVYYIHNFKGRNGGVLFRCYPGPWKVFRRVGSTNICLHQQESMPSLKEVALDILPSAEGHHHHHH | not soluble
4 | MSLSTLLISAPHLAFKIIATGVSLPPDRVESSTLDRKLNKPVGYVEQRSGVRHRYHATADANQAELAAAALHDALERHGINPSSIDLLISASAIAYQALPCTAVHILKIAGLAPRIAGFDINSSCVSFISALQVAAGLLNAGTYQRIAIVSADLASRGIDWNDEESSLIFGDGAACAIVERGDGRSGILASLVEMYPTGSELCEIRAGGTRCNPRSGMDNDDFLFHMQGKRLFRQASGIIEDYFQRLLEKSGLTLADIATVIPHQASHLSLAHMRKRLHVPTDVLVDIYRDHGNQVAASIPTALHAAVMSGRFSPGKPVMLIGTAAGLTLAGMVLLEGHHHHHH | not soluble
5 | MSLSTLQAELASAKTEYEAKELEIRNLFSEKNTQERRLQTLVAQVAAKRKELSNALSQSSAETLTSELQSLESQYQACQTLINNISNYLTVKAGLDKKNASELVERAQKNLLNFIYNSIKSELKVLTDEQVELMKDFVVIEKLIRSELSDSVRQSYFLGCVFDELYGQLKGSDFTSHKEKMLKKYDAESSIG | soluble
6 | MSLSTLQDLEKTLWATADKMRANMDPAEYKHIVLGLIFLKYISDSFAGRRAELERKFSDAGDDYYLGGDDPTYLASELEERDYYKEVNVFWVPEPARWESLRAAAKQVDIGKRIDDALADIEAENPQLKNILDKRYARAQLPDGKLGELVDMISIIGFSSDANKARDLLGQVYEYFLGQFASAEGKRGGQFYTPASIVKTLVAVLNPHHGKVYDPCCGSGGMFVQSEKFIEAHGGKLGDVSIYGQESNPTTWRLAAMNLAIRGMDFNLGKEPADSFIRNQHSDLRADFVLANPPFNISDWWHGSLDGDSRWVYGTPPQGNANYAWLQHMLFHLKSSGRAGIVLANGSMSSSQNSEGDIRRAMVEADVVEVMVALPGQLFFNTQIPACLWFLAKQKNKRPGEVLFIDARKLGTNISRVQIELLDSDIESIAQTVANWRGVPLEVDGEIAEYADVAGFCRSVPLAEIAEHGHVLTPGRYVGAEAVEEGHHHHHH | not soluble
7 | MSLSTNLITTGIGTEQLEQLLSEYFPTYQISRIDRDSTGRKGALEHHLNAIQTGKSQILIGTQMLAKGHHFPNVTLVALVNVDSALFSTDFRAEERLAQLYLQVAGRAGRAEKTGEVVLQTHYPDHPLLKCLLKDGYNAFAEEALKMRQVMALPPFTAQVLFRATGKQSDKVEHLLQNLTAYFQHKSVELGIEGIQISPPFSAIVAKKAGYYRWLLLIQHQSRSAIQQLLNVFDQEKSALNLPANIRLSLDVDPYDMSEGHHHHHH | not soluble
8 | MSLSTPPRAFSLVETGEALTRGDEPSPTRSAVLTRLSHSHMRFGTFQRLAYLDRRDLMVQLVDHVIESYFPDLADESDRPAVLMRAVVSASARLLSRWMSAGFVHGVLNTDNMVVTGESFDYGPWRFLPRNDPNFVAAYFDHAGLYSFGRQPEAVFWNLQQLAGCLSLVTDQAALLAALNSFSDLYRAALRGAMLDRLGLKSRGAEADIALVNTAFRALAEGGETLRWEPFFFDWFGGAASEERALRGPRAGLYAGEAFLDLRRALADFDPDRPERLAHPAFARPEPEELIIDEVEALWSPIADADDWGPLNAKLARIDAAREAYALGQAQIEGHHHHHH | soluble
9 | MSLSWDQVWIDVNVATMDPSISAPYGAITNAAIAVKDGKIAWLGPRSELPAFDVLSIPVYRGKGGWITPGLIDAHTHLVFAGNRANEFELRLKGATYEEIARAGGGIISTVNACREADEAELFDLGRQRLNALAKEGVTTVEIKSGYGLDTETELKILRVARELGQHHHVDVKTTFLGAHAVPPEFKDNSDGYVDLIINKMLPAVIAENLADAVDVFCENIAFNLEQTERVLSTAKAAGLQVKLHAEQLSNMGGSELAARLGAKSVDHIEYLDEAGVKALSESGTCAVLLPGAFYFLRETQKPPIDLLRQYGVPMVLASDFNPGSSPICSTLLMLNMGCTLFRLTPEEALAGLTLNAAKALGIEDNVGSLVVGKQADFCLWDIATPAQLAYSYGVNPCKDVVKNGKLIHQEGHHHHHH | soluble
10 | MSLTAPLPYTRAANLPALLRERILILDGAMGTMIQRYKLTEAQYRGERFASHPVDVKGNNELLLLTRPEVIREIHEQYLAAGADLIETNTFGATTVAQEDYKMAELAYEMNVVAARLAREACDKYSTPDKPRFVAGAFGPTPKTASISPDVNDPGARNISFDQLRDAYYEQGKALLEGGADVFLVETIFDTLNAKAALFAIDQLFEDSGERVPVMISGTVTDASGRILSGQTVEAFWNSLRHAKPITFGLNCALGAALMRPYIAELAKICDTAVSCYPNAGLPNPMSDTGFDETPEVTSSLVDEFAAAGLVNLVGGCCGTTPEHIRAIAERVAQRKPRAWPGQYREAAEGHHHHHH | soluble
11 | MSLTAPLRAGQMNFYDEPYNPVLNLHIQPSVKDENQRSTWPIIDTSNTSTQIARAHFEKHPPNNLRKSNFFHFVIALYDRNSQPIEVERTQFAGFVEKEKEVDGQDTRNGIHYRLSLMFQNGIRSEHDLFVRLIDSSTKQAITYEGQDKNPEMCRVLLTHEVMCSRCCEKKSCGNRNETPSDPVIIDRFFLKFFLKCNQNCLKNAGNPRDMRRFQVVLCSSARIDGPLLAVSDNMFVHNNSKHGRRTKRTDASDDSEYSESAELPSSVPVIKALFPSEGWIQGGTQVVLIGENFFEGLQVAFGTASPNWGESVQLISPHAIRVTTPPKHSAGPVDVTLQYKSKTYSRGTPLRFSYITLAEPGIEYGFQRLQKLLPKYPGDPERLPKDQILKRAAELAEALYNRTSTESLSSYYHTQFDATSDYAARTHTSPRSTLPYGAGPPALSSAVYQTSYPTVNATPAANFLNTQTGFATFGAVNPFAATLQSSSRLS | not soluble
12 | MSLTAPRILMTRPDHYGVTYAINPWMTPESWAGNQTVALAEAATQWQALADALGAVGFALEILPGQPGLPDMVFPANAAIVFDGIALVARFRHPERQGEEAHFHAAFEALRQRGLLSAVHSLPEGVFQEGAGDCLWDASRQLFFAAHGPRSSRASIEVIAETFGQEIVRLELVDPRFYHLDTCFCVLPGGEVLTFTPALSTASLERLRAVVAPEMLIEADFAAASAFSINAVAHGREVVMANPPASLRALLEERGYHVHGLELGRFMQSGGGSYCMTLRLDRRARAEGHHHHHH | soluble
13 | MSLTATTDGSTGASLRPLAASASDTDITIPAAAAGVPEAAARATRRATDFLLAKQDAEGWWKGDLETNVTMDAEDLLLRQFLGIQDEETTRAAALFIRGEQREDGTWATFYGGPGELSTTIEAYVALRLAGDSPEAPHMARAAEWIRSRGGIASARVFTRIWLALFGWWKWDDLPELPPELIYFPTWVPLNIYDFGCWARQTIVPLTIVSAKRPVRPAPFPLDELHTDPARPNPPRPLAPVASWDGAFQRIDKALHAYRKVAPRRLRRAAMNSAARWIIERQENDGCWGGIQPPAVYSVIALYLLGYDLEHPVMRAGLESLDRFAVWREDGARMIEACQSPVWDTCLATIALADAGVPEDHPQLVKASDWMLGEQIVRPGDWSVKRPGLPPGGWAFEFHNDNYPDIDDTAEVVLALRRVRHHDPERVEKAIGRGVRWNLGMQSKNGAWGAFDVDNTSAFPNRLPFCDFGEVIDPPSADVTAHVVEMLAVEGLAHDPRTRRGIQWLLDAQETDGSWFGRWGVNYVYGTGSVIPALTAAGLPTSHPAIRRAVRWLESVQNEDGGWGEDLRSYRYVREWSGRGASTASQTGWALMALLAAGERDSKAVERGVAWLAATQREDGSWDEPYFTGTGFPWDFSINYNLYRQVFPLTALGRYVHGEPFAKKPRAADAPAEAAPAEVKGSEGHHHHHH | soluble
14 | MSLTDLIDIHCHLLPAVDDGSKSIEETLSLIDLLEEIGVKQHILTPHIMEEYPSNDAIFLRARFEELLAAITPDKASRLRLAAEYMLDVAFLDRLAEPLLTLGDRYILVETSYMAPPIGLMGLLADLRFKGLSPVLAHPERYLYMEEKDYVAIKKQGVMFQLNLFSLFGAYNSSASEKAYALLEAGYYDLIGTDIHHLQPIARLLSEASLPPDLEGKIKSLVENNTRLFSEGHHHHHH | not soluble
15 | MSLTDRTIGEAAELLGVTTRTLRHWDSIGLLQPSWRTTTDYRLYTEDDVERALQILIYRAAGIGLKDIAEVLDQPDSANQHLRRQRELLVEQIGQLHRMVRAVDEILGKDAISVKEKIEIFGEDLPKYQEEAFQRWGDTPEWKESQKIQEKMTKEDFQRAKDEHEGFVEKLIDASLRGIAPGSAEGNELALAHRASIGQWYTVSANKQVILARMYVEDERFNETYKGHASYLLTLIEALAQVEGVDLENEGHHHHHH | not soluble
16 | MSLTEATVERIRLFLIESPIKMARLQGVGNVKGTVKRVLIELTSSDGVIGWGEAAPWEVFTGTPEAAFSALDIYLRPIALGKPVRRIRALMAELDRALVGHAEAKVAIEMALLDIVGKSSGLSVADLLGGRVRDTIPLSFSIADPDFPADLERMRKMVPDGNVIYKVKTGVKPHREDLDHLEAIRKEFGDKVDLRVDYNQALAPFGAIKILRDVEEFAPTFIEQPVPRKYLDVMAQLTAALETPVLADESCFDRRDMMEVVRREAADAVSIKLMKAGGLFEAQAIMAIADIAGLPGYGGTLWEGGIGLAAGTQLIAATPGISLGCEFYMPHHVLTEDVLEERVANRAGHVVVPDGPGLGIRVSEASVRANAQVLAEGHHHHHH | not soluble
17 | MSLTERKQRFLRRILTYYTLKRRESKWIIDYWLRNDSKLEQVHFVQNAMFAPKAMIITTYGFDADPFLFKKGEVKTTDPEKAYHDIRLTDEPLYIELNFQGMMMDDEYLSLLEENPFRPEVAVEPKLADAAMNFIAATVNRQEEERLVRLIDEALDARDKHRFQSLSDELRIIRSQLEGHHHHHH | soluble
